We go through four molecules from US20070099268A1, “Chimeric HCN channels” (priority 2005, published 2007).

Experiment [1] deals with mouse Cx45 on transfected HeLa cells (mouse) (UniProt P28229).
For experiment [2], the target named is rat Cx40 on transfected HeLa cells (rat) (UniProt P28234).
Experiment [3] concerns the target rat Cx43 on transfected HeLa cells (rat) (UniProt P08050).
A further experiment deals with T1, HCN2 (Mus musculus, UniProt O88703).
T1 sequence (O88703 1-863): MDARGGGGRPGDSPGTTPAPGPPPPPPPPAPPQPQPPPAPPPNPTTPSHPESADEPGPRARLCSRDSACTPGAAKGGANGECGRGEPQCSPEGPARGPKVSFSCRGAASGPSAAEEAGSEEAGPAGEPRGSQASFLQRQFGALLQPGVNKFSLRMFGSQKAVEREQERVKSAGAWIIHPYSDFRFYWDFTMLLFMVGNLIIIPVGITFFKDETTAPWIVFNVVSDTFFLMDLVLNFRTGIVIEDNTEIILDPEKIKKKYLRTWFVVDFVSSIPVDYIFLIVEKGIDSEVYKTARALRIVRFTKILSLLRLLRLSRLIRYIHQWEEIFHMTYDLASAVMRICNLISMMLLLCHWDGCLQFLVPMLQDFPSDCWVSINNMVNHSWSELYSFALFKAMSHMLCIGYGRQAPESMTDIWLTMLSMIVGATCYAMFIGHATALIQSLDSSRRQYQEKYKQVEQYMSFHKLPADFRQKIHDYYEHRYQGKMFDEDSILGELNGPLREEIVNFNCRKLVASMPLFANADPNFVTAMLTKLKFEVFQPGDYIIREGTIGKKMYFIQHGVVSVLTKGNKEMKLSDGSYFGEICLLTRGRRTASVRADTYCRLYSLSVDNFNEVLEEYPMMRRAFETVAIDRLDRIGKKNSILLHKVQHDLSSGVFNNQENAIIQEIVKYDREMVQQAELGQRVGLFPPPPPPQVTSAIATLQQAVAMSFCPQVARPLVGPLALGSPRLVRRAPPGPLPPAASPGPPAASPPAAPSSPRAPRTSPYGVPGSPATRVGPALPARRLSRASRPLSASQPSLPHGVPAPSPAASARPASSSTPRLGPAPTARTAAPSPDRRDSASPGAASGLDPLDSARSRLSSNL
In words: Coexpression of HCN2 with MiRP1 or minK in Xenopus oocytes, two-microelectrode voltage clamp. The note with it: maximal conductance.

The target in the next experiment is HCN1 (Mus musculus, UniProt O88704). In words: Coexpression of HCN1 with MiRP1 or minK in Xenopus oocytes, two-microelectrode voltage clamp. The note with it: maximal conductance.
For another experiment, the system named is hMSCs loaded with HCN2. As to conditions: cited from earlier work.
In experiment [4] the test system is native pacemaker current in sinus node. The note with it: cited from earlier work.
Experiment [5] has as its system expressed HCN2 current in a neonatal ventricular myocyte. In words: Effect of threshold concentration of isoproterenol on expressed HCN2 current, two-step voltage protocol. The format is cell-based, rat. From the text: The effect of isoproterenol is to shift the activation curve positive without increasing maximal current. This effect can be visualized by a two-step voltage protocol, with the first step to the midpoint of the activation curve and the second step to the maximum curve. FIG. 23 employs this two-step protocol to illustrate that this threshold concentration of isoproterenol shifts the activation curve of over-expressed HCN2 in a neonatal rat ventricle cell.

Another experiment concerns AdHCN2 infected culture. Briefly: Modulation of spontaneous rate by drugs in an AdHCN2 infected culture. As to conditions: superfusion with drug; control record of same culture 48, 54 and 96 beats/min respectively. The format is cell-based, rat.
In experiment [6] the test system is mammalian expression systems. The note with it: cited from earlier work.
Experiment [7] concerns neonatal rat ventricular myocytes. Briefly: Voltage clamp of HCN2 or HCN4 plasmid (lipofectin) expressed in neonatal rat ventricular myocytes. The format is cell-based. From the text:
cDNAs encoding mouse HCN2 (mHCN2, GenBank AJ225122) or HCN4 (mHCN4, GenBank deposit in progress) were subcloned into the pCI mammalian expression vector (Promega, Madison, Wis.). The resulting plasmids (pCI-mHCN2 or pCI-mHCN4) were used for neonatal rat ventricular myocyte transfection, as indicated. A separate plasmid (pEGFP-CI; Clontech, Palo Alto, Calif.) expressing the gene of enhanced green fluorescent protein (EGFP) as a visual marker for successful DNA transfer was included in all transfection experiments. For transfection, 2 μg of pCI-mHCN and […] of pEGFP-CI were first incubated in 200 μl of SFM containing 10 μl of lipofectin (Gibco Life Technologies, Rockville, Md.) at room temperature for 45 min. The mixture was then added to a 35-mm petri dish containing […] suspended in 0.8 ml of SFM. After overnight incubation at 37° C. in a CO2 incubator, the medium containing the plasmids and lipofectin was discarded and the dish was refilled with 2 ml of fresh SFM.
The whole-cell voltage clamp technique was employed to record native If or expressed IHCN2 or IHCN4. Action potentials were recorded in current clamp mode, again using a whole cell patch electrode. Experiments were carried out on cells superfused at 35° C. Extracellular solution contained (mM): NaCl, 140; NaOH, 2.3; MgCl2, 1; KCl, 5.4; CaCl2, 1.0; HEPES, 5; glucose, 10; pH 7.4. To record from myocytes expressing native currents (If), myocytes expressing HCN2 (IHCN2) or HCN4 (IHCN4), [K^+]0 was increased to 10 mM, and MnCl2 (2 mM) and BaCl2 (4 mM) added to the superfusate to eliminate calcium and inward rectifier (IK1) currents. In some experiments CsCl (4 mM) was used extracellularly to identify the pacemaker current as the Cs-sensitive current. The patch pipette solution included (mM): aspartic acid, 130; KOH, 146; NaCl, 10; CaCl2, 2; EGTA-KOH, 5; Mg-ATP, 2; HEPES-KOH, 10, pH 7.2. Where indicated, 10 μM cAMP was included in the pipette solution. A fast solution changing apparatus expedited the experimental protocols. The pipette resistance was typically 1-3 M. An Axopatch-200B amplifier and pClampS software (Axon Instruments) were used for acquisition and data analysis. […]
The activation relation of the native or expressed current can be determined from the steady-state I-V relation. In this case, the reversal potential (Vf) was separately determined from the fully activated I-V relation (Accili et al., 1991) and used to generate the activation relation (y=I/(gmax*(V−Vf)), where gmax is the maximal conductance). […] Tail currents were measured at a negative voltage (−125 mV) to avoid contamination by transient outward and other currents at less negative voltages. […]

Chain of HCN1 (O88704 whole entry): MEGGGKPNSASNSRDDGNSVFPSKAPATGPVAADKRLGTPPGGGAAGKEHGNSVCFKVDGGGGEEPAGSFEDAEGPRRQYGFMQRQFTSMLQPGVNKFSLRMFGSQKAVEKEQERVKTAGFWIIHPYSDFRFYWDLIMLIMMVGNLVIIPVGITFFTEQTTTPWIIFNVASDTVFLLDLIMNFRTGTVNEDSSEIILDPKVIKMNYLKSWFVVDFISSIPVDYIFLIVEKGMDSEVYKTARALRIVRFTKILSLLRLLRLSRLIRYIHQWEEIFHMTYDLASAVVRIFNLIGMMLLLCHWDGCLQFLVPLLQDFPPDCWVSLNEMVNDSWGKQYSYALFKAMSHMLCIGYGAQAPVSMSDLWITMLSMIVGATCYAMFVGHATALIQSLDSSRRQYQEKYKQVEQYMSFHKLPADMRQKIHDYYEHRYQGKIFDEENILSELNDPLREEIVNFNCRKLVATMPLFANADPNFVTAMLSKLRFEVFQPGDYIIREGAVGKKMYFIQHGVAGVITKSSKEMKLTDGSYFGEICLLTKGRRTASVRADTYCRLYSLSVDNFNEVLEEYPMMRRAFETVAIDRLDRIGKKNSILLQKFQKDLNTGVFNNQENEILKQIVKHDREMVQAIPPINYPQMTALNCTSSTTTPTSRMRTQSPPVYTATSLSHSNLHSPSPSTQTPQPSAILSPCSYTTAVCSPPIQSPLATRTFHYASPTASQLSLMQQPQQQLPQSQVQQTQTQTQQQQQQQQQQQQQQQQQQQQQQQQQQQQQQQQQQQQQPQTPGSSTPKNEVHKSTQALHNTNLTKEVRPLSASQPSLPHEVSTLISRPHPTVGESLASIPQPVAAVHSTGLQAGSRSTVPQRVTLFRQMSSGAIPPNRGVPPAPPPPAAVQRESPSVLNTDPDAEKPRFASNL

On to “human mesenchymal stem cells (cells without a defined receptor)”, for which the values for the junctional conductance in cell pairs (double voltage clamp) in [1], in [2] and in [3] were 11 nS, 4.6 nS and 7.9 nS, respectively.
In the case of “minK: rat minK, the minimal K channel protein”, the “enhancement of HCN2 expression on coexpression” value with HCN2 was “does not enhance”. Moreover, the “enhancement of HCN1 conductance on coexpression” value in the experiment with HCN1 was “does not enhance”.
As for `CC(C)NCC(O)c1ccc(O)c(O)c1` (stereo not drawn) [isoproterenol], in the experiment with hMSCs loaded with HCN2, the “effect on expressed current” value is “shift in activation such that increased current flowed at more positive potentials”. In experiment [4], the “threshold concentration on native pacemaker current” value is listed as “approximately 1 nM”. Further, the “positive shift of activation curve” value in experiment [5] was “approximately 5 mV”. Also, in the experiment with AdHCN2 infected culture, the “spontaneous rate during drug exposure” value was determined as 63 beats/min.

B1: HCN4: mouse HCN4 channel isoform (protein, UniProt O70507 1-1201, looked up)
Potassium/sodium …: MDKLPPSMRKRLYSLPQQVGAKAWIMDEEEDGEEEGAGGRQDPSRRSIRLRPLPSPSPSVAAGCSESRGAALGATESEGPGRSAGKSSTNGDCRRFRGSLASLGSRGGGSGGAGGGSSLGHLHDSAEERRLIAAEGDASPGEDRTPPGLATEPERPATAAQPAASPPPQQPPQPASASCEQPSADTAIKVEGGAAASDQILPEAEVRLGQSGFMQRQFGAMLQPGVNKFSLRMFGSQKAVEREQERVKSAGFWIIHPYSDFRFYWDLTMLLLMVGNLIIIPVGITFFKDENTTPWIVFNVVSDTFFLIDLVLNFRTGIVVEDNTEIILDPQRIKMKYLKSWFVVDFISSIPVDYIFLIVETRIDSEVYKTARALRIVRFTKILSLLRLLRLSRLIRYIHQWEEIFHMTYDLASAVVRIVNLIGMMLLLCHWDGCLQFLVPMLQDFPHDCWVSINGMVNNSWGKQYSYALFKAMSHMLCIGYGRQAPVGMSDVWLTMLSMIVGATCYAMFIGHATALIQSLDSSRRQYQEKYKQVEQYMSFHKLPPDTRQRIHDYYEHRYQGKMFDEESILGELSEPLREEIINFNCRKLVASMPLFANADPNFVTSMLTKLRFEVFQPGDYIIREGTIGKKMYFIQHGVVSVLTKGNKETKLADGSYFGEICLLTRGRRTASVRADTYCRLYSLSVDNFNEVLEEYPMMRRAFETVALDRLDRIGKKNSILLHKVQHDLNSGVFNYQENEIIQQIVRHDREMAHCAHRVQAAASATPTPTPVIWTPLIQAPLQAAAATTSVAIALTHHPRLPAAIFRPPPGPGLGNLGAGQTPRHPRRLQSLIPSALGSASPASSPSQVDTPSSSSFHIQQLAGFSAPPGLSPLLPSSSSSPPPGACGSPPAPTPSTSTAAAASTTGFGHFHKALGGSLSSSDSPLLTPLQPGARSPQAAQPPPPLPGARGGLGLLEHFLPPPPSSRSPSSSPGQLGQPPGELSLGLAAGPSSTPETPPRPERPSFMAGASGGASPVAFTPRGGLSPPGHSPGPPRTFPSAPPRASGSHGSLLLPPASSPPPPQVPQRRGTPPLTPGRLTQDLKLISASQPALPQDGAQTLRRASPHSSGESVAAFSLYPRAGGGSGSSGGLGPPGRPYGAIPGQHVTLPRKTSSGSLPPPLSLFGARAASSGGPPLTTAAPQREPGARSEPVRSKLPSNL
As for B1, the “midpoint of activation reported in other mammalian expression studies” value in experiment [6] is listed as −80 to −109 mV. Besides, the “activation kinetics compared to HCN2” value in experiment [7] (for most voltages) is “markedly slower”. The “slope factor (K)” value in [7] (lipofectin transfection) amounted to 6.7±0.7 mV.
